From PMC10928157, “The thymocyte-specific RNA-binding protein Arpp21 provides TCR repertoire diversity by binding to the 3’-UTR and promoting Rag1 mRNA expression”

Tests used:
Arpp21 1-330 = Arpp21 1-330 (UniProt Q9DCB4 1-330); experiment: ITC; 25 C, TCEP; 20 mM sodium phosphate pH 6.5, 300 mM NaCl, 2 mM DTT (TCEP instead of DTT for ITC); NMR 298 K, 10% D2O, 50 uM protein; ITC 25 C, 20 uM protein, 200 uM RNA in syringe; conditions: protein: recombinant; tags: His-GB1 tag, TEV-cleaved
Arpp21 61-260 = Arpp21 61-260 (UniProt Q9DCB4 61-260); experiment: ITC; 25 C, TCEP; panel label, Methods and text say 61-260, legend says 130-260; 20 mM sodium phosphate pH 6.5, 300 mM NaCl, 2 mM DTT (TCEP instead of DTT for ITC); NMR 298 K, 10% D2O, 50 uM protein; ITC 25 C, 20 uM protein, 200 uM RNA in syringe; conditions: protein: recombinant; tags: His-GB1 tag, TEV-cleaved
Chain of Arpp21 61-260 (Q9DCB4 61-260): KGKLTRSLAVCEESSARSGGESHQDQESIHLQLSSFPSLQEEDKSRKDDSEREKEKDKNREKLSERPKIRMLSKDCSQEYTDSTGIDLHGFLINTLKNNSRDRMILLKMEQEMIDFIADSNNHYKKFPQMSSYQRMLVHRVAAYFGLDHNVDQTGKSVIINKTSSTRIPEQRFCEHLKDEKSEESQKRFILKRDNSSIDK

Chain of Arpp21 1-330 (Q9DCB4 1-330): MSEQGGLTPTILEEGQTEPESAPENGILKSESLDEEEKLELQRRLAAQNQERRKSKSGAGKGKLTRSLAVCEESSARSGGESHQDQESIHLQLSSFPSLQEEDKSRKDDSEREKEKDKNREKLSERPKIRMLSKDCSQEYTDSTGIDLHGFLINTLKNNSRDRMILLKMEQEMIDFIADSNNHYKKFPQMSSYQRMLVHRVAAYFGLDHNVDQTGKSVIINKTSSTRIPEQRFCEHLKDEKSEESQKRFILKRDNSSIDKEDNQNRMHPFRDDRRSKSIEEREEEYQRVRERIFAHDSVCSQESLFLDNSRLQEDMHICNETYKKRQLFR

## UUUUUUUUU (ssRNA) [U9 RNA]
Arpp21 1-330
  Kd: 4.7 µM
Arpp21 61-260
  Kd: 4.8 µM
